Biological target: T1, DRAGON-Fc fusion protein (DRAGON without its GPI anchor fused to the Fc portion of human IgG) (mouse; human, UniProt Q7TQ33 49-415, limits assumed)
T1 construct: Purified from stably transfected HEK293 cells; also called soluble DRAGON; not shown: Fc portion of the human IgG (vector pIgplus, R&D Systems)
T1 sequence: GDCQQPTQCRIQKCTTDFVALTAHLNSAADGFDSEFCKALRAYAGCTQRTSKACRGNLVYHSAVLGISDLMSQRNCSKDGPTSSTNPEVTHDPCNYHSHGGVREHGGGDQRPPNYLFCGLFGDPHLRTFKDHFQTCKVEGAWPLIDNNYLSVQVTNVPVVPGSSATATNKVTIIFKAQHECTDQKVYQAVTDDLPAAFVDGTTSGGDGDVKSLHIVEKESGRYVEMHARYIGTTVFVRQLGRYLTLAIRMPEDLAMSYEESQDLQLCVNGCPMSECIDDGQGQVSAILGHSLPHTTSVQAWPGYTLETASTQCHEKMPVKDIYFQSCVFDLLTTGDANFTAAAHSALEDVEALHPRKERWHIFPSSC
Experiment: DRAGON-Fc with [125I]-BMP2 and increasing unlabeled BMP2, capture on protein A plates

B1: BMP-2 (ligand, human, UniProt P12643 283-396, looked up)
chain: QAKHKQRKRLKSSCKRHPLYVDFSDVGWNDWIVAPPGYHAFYCHGECPFPLADHLNSTNHAIVQTLVNSVNSKIPKACCVPTELSAISMLYLDENEKVVLKNYQDMVVEGCGCR
modifications: iodinated with 125I where used as tracer
B1 was tested, and the Kd was 1.5 nM.

Source: patent publication US20060063208A1 (GENERAL HOSPITAL, published 2006)
